# Reference: the DeepSol protein solubility set
# Test: soluble on expression in E. coli; label from the status in PepcDB or PDB records
row,Sequence,soluble on expression in E. coli
1,MRGSHHHHHHGSLVPRGSMVAADAPAAGTDITNQLTNVTVGIDSGTTVYPHQAGYVKLNYGFSVPNSAVKGDTFKITVPKELNLNGVTSTAKVPPIMAGDQVLANGVIDSDGNVIYTFTDYVNTKDDVKATLTMPAYIDPENVKKTGNVTLATGIGSTTANKTVLVDYEKYGKFYNLSIKGTIDQIDKTNNTYRQTIYVNPSGDNVIAPVLTGNLKPNTDSNALIDQQNTSIKVYKVDNAADLSESYFVNPENFEDVTNSVNITFPNPNQYKVEFNTPDDQITTPYIVVVNGHIDPNSKGDLALRSTLYGYNSNIIWRSMSWDNEVAFNNGSGSGDGIDKPVVPEQPDEPGEIEPIPEK,soluble
2,TESVYITTPYLIIDYDLTETIKNAAMRGVDVRIITPYIPDKKFIQLVTRGAYPDLLSAGVRIYEYSPGFIHSKQMLVDEDFAVVGTINLDYRSLVHHYENAVLLYKTPSIREIARDFRNIFADSQEVYPHSIKT,not soluble
3,MTDILIDNTATETVRTLIRAFPLVPVSQPPEQGSYLLAEHDTVSLRLVGEKSSVIVDFASGAAQYRRTKGGGELIAKAVNHTAHPTVWDATAGLGRDSFVLASLGLAVTAFEQHPAVACLLSDGIRRALLNPETQNTAAHINLHFGNAAEQMPALVQTQGKPDIVYLDPMYPERRKSAAVKKEMTYFHRLVGEAQDEAALLHTARQTAKKRVVVKRPRLGEHLAGQDPAYQYTGKSTRFDVYLPYGTDKG,not soluble
4,GSHMSKSDVFHLGLTKNDLQGATLAIVPGDPDRVEKIAALMDKPVKLASHREFTTWRAELDGKPVIVCSTGIGGPSTSIAVEELAQLGIRTFLRIGTTGAIQPHINVGDVLVTTASVRLDGASLHFAPLEFPAVADFECTTALVEAAKSIGATTHVGVTASSDTFYPGQERYDTYSGRVVRHFKGSMEEWQAMGVMNYEMESATLLTMCASQGLRAGMVAGVIVNRTQQEIPNAETMKQTESHAVKIVVEAARRLL,soluble
5,MGSDKIHHHHHHMRGKMIDDPIDLLRQYSRKLVRELGMLQLNKLAAKEQPSYWHTLIEINKEPNITISKLSQLLLVSLPTLSRIVNSLINDELVTVNEGLDKRERFLRVTDKGKEKVNYIDEYSNTKIKRAFHYLTDEEREQVITAIGKYAQALEQSRLIRDQIRILRLSTSRALRKQIVNMIENIQVNEFHLSITPEINASILKAEEEYCYYSSCNFWYAVDEQGGIIGSIGLKKLNHTEGEVKKFFIAPKYRGLGLAQKLMLTLVRNAMKHGFKKLFLGTVAQLNAARRFYEKNGFVLVNKNSLPKEFELCPLDTHFYYCETDKLDKSLRELI,not soluble
6,MEQLYPAPIKTVEEGSPAARAGVRPGDVLLRVNGQPVTDVLAYRHQLERGVVTLEVARPHEAPRVMTGVLEHHHHHH,not soluble
7,MDKKPSILIFIVAYNAESTIENVLMRIPADLLDDFDAEVLVIDDQSSDDTVLRCAETIQSGKIRFKTNVLVNPENQGYGGNQKVGYQYAIEHDFDCVALLHGDGQYAPEYLRDLITPVTKGEAEAVFGSRMMTPFGALKGGMPAYKFVGNKILTLFQNIMLKTSLSEFHSGYRAYSVKALKQIPFHLNTPDFHFDTEIIIQLILWGFRIAERPIPTYYGDEICYVNGLKYALDVVITTTKARMQRLGLFHECKYEVIHPHNSNGYPEAKLSIKSPSGNRILEHHHHHH,not soluble
8,MGSDKIHHHHHHGEDSEGSGTSGISPGGNSVSEEVLKHRSMVEKYAKESDILDYVPILLAIIQVESGGTMEDVMQSSESAGLPPNSLSTEASIKQGCIYFASLVKSSKELGCDQDSIIQAYNYGGGYLNYVAKNGKKHSFTLAESFSKEKSGGQKVDYPNPIAIKENGGWRYNYGNMFYCLLVKQYLTTTQFDDKTVQGIFDEAFKYEGTAYVFGGSSPATGFDCSGLTQWCYAKVGLKLPRVAQDQYDVMTHIDLKDAKPGDLIFFHSTYDAGTYVTHVGIYAGENRMFHAGNPVGWTNLTESYWQQHLIGAGRYN,not soluble
9,MADKREPAPGWPILKGEYEVGDVKNSVLVITCGSHLPGKPILDAGAACTGSCKTENLGIEKVVAHIISNPNIRYLLVTGSEVKGHITGQSMMSLHANGVKENRIAGALGAIPYVENLNAAAVARFQEQVQVVNLLDTEDMGAITSKVRELASKDPGAFDADPLVVEISEEGEEEEEGGVVRPVSGEIAVLRSRLKAIEARMMDI,not soluble
10,MSPMNRQRKNKSHVLNEKDERPGGIIKEKSSVRSMAKTQPPSGRTISLTEINKPNALSKKNTEIKAAVEIQNRLTKKMAKNSERRKQMAHGPEMTAQNRTQERIDFVDFLDRHYQVIQAGVHKIQYTKEEFENVIYEAQTIFSSEKALVDIDPPCVVVGDLHGQFNDLINMFILLGRPPETVYVFTGDYVDRGMMSLECIMLLFTYKICYPENIVLLRGNHEIARVNKKYGFYEECVTSIPKCGEEIWALFQRCFNNLPISALIATKILCMHGGLSPALTCLDELRNHPKPIRNPFRGIVNDMLWADPDPSVFEWKASSRGSGFTFGTNVIDDVCKRLGVELIIRAHQMCFDGYWVLSGRKLITIFSAPMYCNFYKNAGCVLKVDETLGIQMIAFVPASENIEKIIEEKNRVWDISIDCID,not soluble
11,QYFTGGLSLEPSNQAGFSQSQSASNTAAQDENAQFVAAILGTTETVWNQLLQGQYVEPKLVLYRNMTSTGCGMGQAQSGPFYCPADGKVYIDLSFLEELKKLGASGDFAFAYVIAHEVGHHVQNLLGTSTKVRQAQQAAGKAQANQLSVALELQADCYAGVWGHYVDRQLNLLEPGDVEEGIAAASAVGDDRLQKMAGRAVQPEAFTHGSSADRVKWFNIGFASGKPASCNTF,not soluble
12,QTLTEEEVLKKLDKEQMRASFEDMRRIMPDLGFEAKGYALSFEQLAQLKIPVIVYLKYRKDDHFSVLRGIDGNTVLLADPSLGHVSMSRAQFLDAWQTREGNLAGKILAVIPKKAETISNKLFFTQHPKRQTEFTVGQIRQARAE,not soluble
13,MSNRKYFGTDGIRGRVGDAPITPDFVLKLGWAAGKVLARHGSRKIIIGKDTRISGYMLESALEAGLAAAGLSALFTGPMPTPAVAYLTRTFRAEAGIVISASHNPFYDNGIKFFSIDGTKLPDAVEEAIEAEMEKEISCVDSAELGKASRIVDAAGRYIEFCKATFPNELSLSELKIVVDCANGATYHIAPNVLRELGANVIAIGCEPNGVNINAEVGATDVRALQARVLAEKADLGIAFDGDGDRVIMVDHEGNKVDGDQIMYIIAREGLRQGQLRGGAVGTLMSNMGLELALKQLGIPFARAKVGDRYVLEKMQEKGWRIGAENSGHVILLDKTTTGDGIVAGLQVLAAMARNHMSLHDLCSGMKMFPQILVNVRYTAGSGDPLEHESVKAVTAEVEAALGNRGRVLLRKSGTEPLIRVMVEGEDEAQVTEFAHRIADAVKAV,not soluble
14,MGSDKIHHHHHHMRISLSTGTLFTFPLGKVMAIARDAGFDGVELIVNQDFQKVNCRTLIRELAEILPIHSMHAPFMPLDGWGSSIDSLKRCVELSADCGVQLVNFHPPSWMGFELGFWRWLYRVMDFQKEVGQGGVIVTLENMPWVGKRVRMNPHILSSTTKFIDFIQERNLFMTFDTTHMGSGKANFINDFYLCYNSGRIRNIHFSDYGHGREHLLPGHGILPLTRFLNHLRSTGYNDTLTLELSPEEFPRDERIIVESLREILSYLRKETEHPIP,not soluble
15,MSLLVMKCSKCSAEAIYYAKYNGLYLCRDHFNEMIEGRVKKEIRKQVEFHGDDVTISVALSGGKDSSVTLFLLHKILGNRKNMKIKAFTVDEGIDGYRPSGLESAKRLCTSLGIDHETISFYDSYGLTLDSIVKTNPVKIPCAYCGPLRRKLINEMADKQDADYVALGLNLDDYSQSILMNVAKGDFDRFIRMSPQTDRKVGLVRRIAPLRTILEKEVVLYAVTNDIPFDSSWCPYYSRAQRNVFREVVNKLSEENPSTKFAILKFFDRVRENITTGHEEVKLKRCKICGAPTERDVCTACSSLQEVNEMMAEHEGHHHHHH,soluble
16,PKTVQDLTSVVQTLLQQMQDKFQTISDQIIGRIDDMSSRIDDLEKNIA,soluble
17,MAGGPSALTLIARTSATGAQPLSLRARFPRTRPPMKKIPLAAADPDRLDTWVKYREGLCGECNATCCTLPVEVRIDDLIRMRLVDEFEREEPAKRIAKRLEKDGVIEHFNHKREIFTLTRMANGDCLYLDRKTRLCTIYARRPDTCRNHPRIGPRPGYCAYRPRLEHHHHHH,not soluble
18,MGSDKIHHHHHHMRRTYLTLSEEDKDYLKTLSKKRTIQAQIVDRAKILLYKSDGMTFNAIAEKLAISSATVRLCVSKYYEGGIEKALFDTQRPGRPSEITDDAKAWIINLACQRPVELGYAQELWTLNALHKHIQKHAEEAGYPRLTTITKPYIQKFLKEQDIKPFKIRYYCEKRDQDFESKMHEVLLVYKQIEMQFDENGTLIVPDDYKLTITVSYDEKPGIQAISNTAPDLRPTTENGEVYRDAEYKRLGTLSLLAGIDLLTGEAIPLVSETHKSSDFIEFLKIRDKKYPLQDTIRIILDNHSAHTSKETQRFLDTMPKGRFKFVFTPKHGSWLNMIESFFSKMTKQMLRGIRVKTKQELEERIYQYFEEVNREPVVYHWKYKMDEIEKKKCCTELWMPFSAH,not soluble
19,MAHHHHHHMTTLYDELYLLFDEYIVRNCKQPNTYESLFCKKEFVQFAKLHGTSVVVTSPKKEIKNKDEIIDELIYAFKLFAKYTSMCDFFSKNEEVDDINTIYLKFLLIPYILGVLCYETISMEIRSDRLKEAKLYFGEFINVVNVYKIAPVEDYLLDEGGEVNQAMNRRNIKVKRAKDEKKLQDFYDDMIKMNVKKGSSQNYNHLCFADHMEEEQIREIYLSLIKCKCLQTLNMMDLIDTEIEVLEMRNRQQVQDKQHQNGKPTQGTKDTHDGQPPHQNKHPKDGIKKPWLFTIKKNMPLADMTQMRNYYRDLVFTPAHNLPTISLEECAKIEMEYALKGEGMAPRSEEERRGNPKSGTIKGAAQNGTDDEEDYEKSSKEESEKELMDREWDDWKDMHQKGIGNKNRNVA,not soluble
20,MSKILGDGHVRKTVDLPDSALRLNYEKKYYEPENGDHLIFSAQLQNGRYSALTAIKPTDLLQVYGSLSYLDEQLKFGHVSIHGRTAKVFVPFSTRTTNGACWYGQGAYIDKPYLIYIFRQEEAHGCKFVAWAIYDDTRKTTSVPPTPTDIQNTSHMKKLGPPTAVQRQSDHQSVEFVQAQSGVIYDISDNYVISVTSPTCQNVEFAPTLYESWMRPGRFITFDGRRVSDVKTSKLMGSNPEDMGSIYPIRKLTPLTITISAIMNKVSHGKAGWAWNDHVGRIYIPWNSTDRYMQASKPLPFTPVHLEIAYNGKHDDIPWVACGSSLVEEQEYDQIVDENSRMLKTEDNWKIQSVVDGPENPSIFLAKFDEKGLKRTAFAKVIDLNSGNIPPTGTLVRITYYAQERHGRHAMRCVLVTTMEKVERFPKVHSIINGSGEKHFPMMYEQPIPKKQVIPPTPVQRVQAAPPPAKNCWNLKNLGSPAAQPSVQDFPTVTGDEDDNIFVEETNTALPPPGFVPPGLVAPPGLPPPPGLPAVPLSTDLAYDFKMTSSIPMTNGLGHLRLGSVWSGTPVEAKQEEPLHYFQQQDNFLGSSFGPISSTFSADNFFTELTASISQPSTSSVVNSGPISDLRNTQSEASSPGLKSDGNEPVEETNCWSSLEAATNGNNPFNSSFSYGFPHMDLPIYQKMMPNANDILKPMPLVEEELKPATSATHSEADSCTCGTEQLIWDLWQNPHFIAAFAASDPETFKRVDAKRKLFSLSNHR,not soluble
21,VHFAPTITFLESPTSDHHWCIPFTVKGNPKPALQWFYNGAILNESKYICTKIHVTNHTEYHGCLQLDNPTHMNNGDYTLIAKNEYGKDEKQISAHFMGWPGID,soluble
22,MNTMVKLPDSRWPGWRRRLYWWMHEAVEAEEVISLDLETTSLDPRRADILSIGAVLVRRGKLVMGERLELYVEPPPSLDAESIRIHKLRRADLEGQLQLEQALRQVLAFIGDRPLLGYYLSFDVAVLNRHLRQLLDRQLHNPSIEISSLYHRKVSRHFPDAHIDLRFDTLARALDVPVSGRHTALGDAQAVALMFMRLLKGPAPKVIH,not soluble
